# T1: hIL-11Rα (Homo sapiens, UniProt Q14626)
# T1 sequence (Q14626 23-422): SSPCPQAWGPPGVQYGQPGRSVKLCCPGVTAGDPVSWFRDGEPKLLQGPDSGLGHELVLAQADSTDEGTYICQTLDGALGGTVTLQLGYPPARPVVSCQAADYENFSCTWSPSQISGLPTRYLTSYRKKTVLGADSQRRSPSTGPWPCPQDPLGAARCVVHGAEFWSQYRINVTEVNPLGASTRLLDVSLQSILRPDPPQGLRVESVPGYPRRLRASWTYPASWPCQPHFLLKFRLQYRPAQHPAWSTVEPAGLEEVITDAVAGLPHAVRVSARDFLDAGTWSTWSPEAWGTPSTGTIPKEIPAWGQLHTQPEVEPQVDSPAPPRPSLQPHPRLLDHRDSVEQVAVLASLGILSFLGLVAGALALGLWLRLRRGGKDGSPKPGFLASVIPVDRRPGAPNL
# T2: hIL-11R (Homo sapiens, UniProt Q14626)
# T2 sequence (Q14626 23-422): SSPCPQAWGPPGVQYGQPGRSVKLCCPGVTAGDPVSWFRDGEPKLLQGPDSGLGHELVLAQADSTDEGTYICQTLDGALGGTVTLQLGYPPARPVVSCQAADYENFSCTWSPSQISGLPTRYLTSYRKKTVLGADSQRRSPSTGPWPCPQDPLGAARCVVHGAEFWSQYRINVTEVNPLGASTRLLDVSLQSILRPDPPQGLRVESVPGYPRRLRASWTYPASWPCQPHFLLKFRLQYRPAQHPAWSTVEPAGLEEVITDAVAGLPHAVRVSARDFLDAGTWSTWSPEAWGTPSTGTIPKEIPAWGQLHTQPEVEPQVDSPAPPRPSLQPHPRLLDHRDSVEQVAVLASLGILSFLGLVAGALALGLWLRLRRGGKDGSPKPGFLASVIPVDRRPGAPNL
# Assays:
# hIL-11Rα = target: T1, hIL-11Rα; assay: Kinetic binding analysis by biolayer interferometry (protein G biosensors, Octet RED96e)
# Procedure: Association was carried out in the presence of a 2-fold dilution series of hIL-11Rα and was allowed to proceed for 120 seconds; dissociation was measured for 300 to 1200 seconds.
# [1] = system: IL-11 signaling (STAT3 Reporter (Luciferase)-HEK293 cell line); assay: Cell-based STAT3 reporter (luciferase) HEK293 assay for inhibiting IL-11 signaling; parameters: species or system human
# Procedure: Further testing of the lead mAbs was carried out using a cell-based reporter assay. IL-11 is reported to signal through the STAT3 and ERK pathways. Therefore, a STAT3 reporter cell line in which firefly luciferase gene expression is driven by STAT3 response elements located upstream of a minimal TATA promoter was selected to analyze mAb functional activity. In these cells, IL-11 can activate the endogenous STAT3 allowing it to bind to the STAT3 response elements, inducing transcription of the luciferase reporter gene and resulting in readily detectable luciferase expression. Antibodies to IL-11R which block IL-11 signaling should inhibit expression of IL-11 driven luciferase in these cells.
# The STAT3 Reporter (Luciferase)—HEK293 cell line (BPS Bioscience, catalog #79800-P) was grown, passaged, and assayed as per manufacturer's protocols. Cells were added at 25,000 cells per well in a 96-well microtiter dish and incubated at 37° C. for 30-45 min. in 5% CO2 humidified air. Anti-IL-11R mAbs were added as a 3-fold dilution series in duplicate columns or rows, and plates were returned to the incubator for an additional 1 h at 37° C. after which 40 ng/mL IL-11 was added to each well to initiate the signal transduction cascade and luciferase production. Plates were incubated for 18-24 hours at 37° C. and luciferase was detected using a One-Step Luciferase Assay System (BPS Bioscience, cat. no. 60690-1) as per manufacturer's instructions.
# hIL-11R = target: T2, hIL-11R; assay: Alternate biolayer interferometry assay (AHC biosensors) ranking mAbs 16-32 against mAb5; format: binding; conditions: compared to mAb5 (comparator)
# Excerpt: A further series of antibodies were designed in which the residue at Kabat position 31 of the heavy chain was varied (mAbs 16-32). In this case an alternate biolayer interferometry assay was used to initially rank the antibodies compared to mAb5, the closest relative in sequence to mAbs 16-32. MAbs were loaded onto anti-human constant domain (AHC) biosensors (FortéBio) in 10×kinetics buffer consisting of PBS, 0.1% BSA, 0.02% polysorbate 20 (TWEEN™) for 120 s to achieve a spectral shift value of 0.8 to 1.2 nm. Association was carried out in the presence of 2-fold dilution series of hIL-11R and was allowed to proceed for 120 s. Dilution series started 10 nM. The dissociation in 10×kinetics buffer for 1200 s. Binding kinetic measurements were taken on an Octet RED96e instrument.
Molecule,ka (hIL-11Rα),kd (hIL-11Rα),potency at inhibiting IL-11 signaling relative to TS7 / 8E2 (in words) [1],qualitative assessment (hIL-11R)
"mAb14: anti-IL-11Rα antibody, human IgG4 (S228P), kappa; VH SEQ ID NO: 219, VL SEQ ID NO: 220 (antibody, V domains shown, IgG4 S228P kappa constant regions; mAb14 VH Chain; mAb14 VL Chain) VH: EVQLLESGGGLVQPGGSLRLSCAASGFTFSWYSMTWVRQAPGKGLEWVSSIVPYGDLTQYAESVKGRFTISRDNSKNTLYLQMNSLRAEDTAVYYCAKGPGWGSFDLWGRGTLVTVSS VL: DIQMTQSPSSLSASVGDRVTITCQASQDINNYLNWYQQKPGKAPKLLIYDASNLQTGVPSRFSGSGSGTDFTFTISSLQPEDIATYYCQQHESQSPTFGPGTKVDIK",33700 M⁻¹ s⁻¹,<1e-07 s⁻¹,comparable in potency to TS7,
"mAb15: anti-IL-11Rα antibody, human IgG4 (S228P), kappa; VH SEQ ID NO: 221, VL SEQ ID NO: 222 (antibody, V domains shown, IgG4 S228P kappa constant regions; mAb15 VH Chain; mAb15 VL Chain) VH: EVQLLESGGGLVQPGGSLRLSCAASGFTFSWYSMTWVRQAPGKGLEWVSSIVPYGDLTQYADSVKGRFTISRDNSKNTLYLQMNSLRAEDTAVYYCAKGPGWGSFDLWGRGTLVTVSS VL: DIQMTQSPSSLSASVGDRVTITCQASQDINNYLNWYQQKPGKAPKLLIYDASNLQTGVPSRFSGSGSGTDFTFTISSLQPEDIATYYCQQHETQTPTFGPGTKVDIK",84000 M⁻¹ s⁻¹,<1e-07 s⁻¹,comparable in potency to TS7,
"mAb6: anti-IL-11Rα antibody, human IgG4 (S228P), kappa; VH SEQ ID NO: 203, VL SEQ ID NO: 204 (antibody, V domains shown, human IgG4 S228P and kappa constant regions; mAb6 VH Chain; mAb6 VL Chain) VH: EVQLLESGGGLVQPGGSLRLSCAASGFTFSWYSMTWVRQAPGKGLEWVSSIVPYGDLTQYADSVKGRFTISRDNSKNTLYLQMNSLRAEDTAVYYCAKGPGWGSFDLWGRGTLVTVSS VL: DIQMTQSPSSLSASVGDRVTITCQASQDINNYLNWYQQKPGKAPKLLIYDASNLQTGVPSRFSGSGSGTDFTFTISSLQPEDIATYYCQQHEFQSPTFGPGTKVDIK",800000 M⁻¹ s⁻¹,<1e-07 s⁻¹,variable,
"mAb9: anti-IL-11Rα antibody, human IgG4 (S228P), kappa; VH SEQ ID NO: 209, VL SEQ ID NO: 210 (antibody, V domains shown, human IgG4 S228P and kappa constant regions; mAb9 VH Chain; mAb9 VL Chain) VH: EVQLLESGGGLVQPGGSLRLSCAASGFTFSWYSMTWVRQAPGKGLEWVSGIVPYGDLTQYADSVKGRFTISRDNSKNTLYLQMNSLRAEDTAVYYCAKGPGWGSFDLWGRGTLVTVSS VL: DIQMTQSPSSLSASVGDRVTITCQASQDINNYLNWYQQKPGKAPKLLIYDASNLQTGVPSRFSGSGSGTDFTFTISSLQPEDIATYYCQQHESQSPTFGPGTKVDIK",62200 M⁻¹ s⁻¹,<1e-07 s⁻¹,more potent at inhibiting IL-11 signaling than either of TS7 or 8E2,
"mAb13: anti-IL-11Rα antibody, human IgG4 (S228P), kappa; VH SEQ ID NO: 217, VL SEQ ID NO: 218 (antibody, V domains shown, IgG4 S228P kappa constant regions; mAb13 VH Chain; mAb13 VL Chain) VH: EVQLLESGGGLVQPGGSLRLSCAASGFTFSWYSMTWVRQAPGKGLEWVSSIVPYGDLTQYADSVKGRFTISRDNSKNTLYLQMNSLRAEDTAVYYCAKPEDWGRFDLWGRGTLVTVSS VL: DIQMTQSPSSLSASVGDRVTITCQASQDINNYLNWYQQKPGKAPKLLIYDASNLQTGVPSRFSGSGSGTDFTFTISSLQPEDIATYYCQQHESQSPTFGPGTKVDIK",66700 M⁻¹ s⁻¹,<1e-07 s⁻¹,more potent at inhibiting IL-11 signaling than either of TS7 or 8E2,
"mAb32: anti-IL-11Rα antibody, human IgG4 (S228P), kappa; VH SEQ ID NO: 255, VL SEQ ID NO: 256 (antibody, V domains shown, IgG4 S228P kappa constant regions; mAb32 VH Chain; mAb32 VL Chain) VH: EVQLLESGGGLVQPGGSLRLSCAASGFTFSYYSMTWVRQAPGKGLEWVSSIVPYGDLTQYADSVKGRFTISRDNSKNTLYLQMNSLRAEDTAVYYCAKGPGWGSFDLWGRGTLVTVSS VL: DIQMTQSPSSLSASVGDRVTITCQASQDINNYLNWYQQKPGKAPKLLIYDASNLQTGVPSRFSGSGSGTDFTFTISSLQPEDIATYYCQQHESQSPTFGPGTKVDIK",,,,similar
"mAb16: anti-IL-11Rα antibody, human IgG4 (S228P), kappa; VH SEQ ID NO: 223, VL SEQ ID NO: 224 (antibody, V domains shown, IgG4 S228P kappa constant regions; mAb16 VH Chain; mAb16 VL Chain) VH: EVQLLESGGGLVQPGGSLRLSCAASGFTFSAYSMTWVRQAPGKGLEWVSSIVPYGDLTQYADSVKGRFTISRDNSKNTLYLQMNSLRAEDTAVYYCAKGPGWGSFDLWGRGTLVTVSS VL: DIQMTQSPSSLSASVGDRVTITCQASQDINNYLNWYQQKPGKAPKLLIYDASNLQTGVPSRFSGSGSGTDFTFTISSLQPEDIATYYCQQHESQSPTFGPGTKVDIK",,,,similar
"mAb17: anti-IL-11Rα antibody, human IgG4 (S228P), kappa; VH SEQ ID NO: 225, VL SEQ ID NO: 226 (antibody, V domains shown, IgG4 S228P kappa constant regions; mAb17 VH Chain; mAb17 VL Chain) VH: EVQLLESGGGLVQPGGSLRLSCAASGFTFSDYSMTWVRQAPGKGLEWVSSIVPYGDLTQYADSVKGRFTISRDNSKNTLYLQMNSLRAEDTAVYYCAKGPGWGSFDLWGRGTLVTVSS VL: DIQMTQSPSSLSASVGDRVTITCQASQDINNYLNWYQQKPGKAPKLLIYDASNLQTGVPSRFSGSGSGTDFTFTISSLQPEDIATYYCQQHESQSPTFGPGTKVDIK",,,,decreased
"mAb18: anti-IL-11Rα antibody, human IgG4 (S228P), kappa; VH SEQ ID NO: 227, VL SEQ ID NO: 228 (antibody, V domains shown, IgG4 S228P kappa constant regions; mAb18 VH Chain; mAb18 VL Chain) VH: EVQLLESGGGLVQPGGSLRLSCAASGFTFSEYSMTWVRQAPGKGLEWVSSIVPYGDLTQYADSVKGRFTISRDNSKNTLYLQMNSLRAEDTAVYYCAKGPGWGSFDLWGRGTLVTVSS VL: DIQMTQSPSSLSASVGDRVTITCQASQDINNYLNWYQQKPGKAPKLLIYDASNLQTGVPSRFSGSGSGTDFTFTISSLQPEDIATYYCQQHESQSPTFGPGTKVDIK",,,,decreased
"mAb19: anti-IL-11Rα antibody, human IgG4 (S228P), kappa; VH SEQ ID NO: 229, VL SEQ ID NO: 230 (antibody, V domains shown, IgG4 S228P kappa constant regions; mAb19 VH Chain; mAb19 VL Chain) VH: EVQLLESGGGLVQPGGSLRLSCAASGFTFSFYSMTWVRQAPGKGLEWVSSIVPYGDLTQYADSVKGRFTISRDNSKNTLYLQMNSLRAEDTAVYYCAKGPGWGSFDLWGRGTLVTVSS VL: DIQMTQSPSSLSASVGDRVTITCQASQDINNYLNWYQQKPGKAPKLLIYDASNLQTGVPSRFSGSGSGTDFTFTISSLQPEDIATYYCQQHESQSPTFGPGTKVDIK",,,,similar
